Results: IntAct's records for PubMed 17666432

B1: Transforming acid coiled-coil-containing protein 1 (Caenorhabditis elegans), G5ECG0 (parent)
chain: MSLNTTFTKEDGTEVVIPFNGSQNGHPENEEPEVEEAAEPSSSVETLCGATRGDIIVMKHTTKALTELIERLLHSDEFEVRRCSNGQIISQGRCNGTTPGNGIGGGGASSEELEKALKDRDAARAEADKLHANYATLFASFNTVREAANDIRGEYEDARDKLKLAAAEVDEWQAKFLAVKDNANSELERASVEYDDLLRSHDENTKGLRLRVKRQEIELSSKNDEIKVLTNRVSELSQICDQLLNDVDVSDGMSVISTDA
partner: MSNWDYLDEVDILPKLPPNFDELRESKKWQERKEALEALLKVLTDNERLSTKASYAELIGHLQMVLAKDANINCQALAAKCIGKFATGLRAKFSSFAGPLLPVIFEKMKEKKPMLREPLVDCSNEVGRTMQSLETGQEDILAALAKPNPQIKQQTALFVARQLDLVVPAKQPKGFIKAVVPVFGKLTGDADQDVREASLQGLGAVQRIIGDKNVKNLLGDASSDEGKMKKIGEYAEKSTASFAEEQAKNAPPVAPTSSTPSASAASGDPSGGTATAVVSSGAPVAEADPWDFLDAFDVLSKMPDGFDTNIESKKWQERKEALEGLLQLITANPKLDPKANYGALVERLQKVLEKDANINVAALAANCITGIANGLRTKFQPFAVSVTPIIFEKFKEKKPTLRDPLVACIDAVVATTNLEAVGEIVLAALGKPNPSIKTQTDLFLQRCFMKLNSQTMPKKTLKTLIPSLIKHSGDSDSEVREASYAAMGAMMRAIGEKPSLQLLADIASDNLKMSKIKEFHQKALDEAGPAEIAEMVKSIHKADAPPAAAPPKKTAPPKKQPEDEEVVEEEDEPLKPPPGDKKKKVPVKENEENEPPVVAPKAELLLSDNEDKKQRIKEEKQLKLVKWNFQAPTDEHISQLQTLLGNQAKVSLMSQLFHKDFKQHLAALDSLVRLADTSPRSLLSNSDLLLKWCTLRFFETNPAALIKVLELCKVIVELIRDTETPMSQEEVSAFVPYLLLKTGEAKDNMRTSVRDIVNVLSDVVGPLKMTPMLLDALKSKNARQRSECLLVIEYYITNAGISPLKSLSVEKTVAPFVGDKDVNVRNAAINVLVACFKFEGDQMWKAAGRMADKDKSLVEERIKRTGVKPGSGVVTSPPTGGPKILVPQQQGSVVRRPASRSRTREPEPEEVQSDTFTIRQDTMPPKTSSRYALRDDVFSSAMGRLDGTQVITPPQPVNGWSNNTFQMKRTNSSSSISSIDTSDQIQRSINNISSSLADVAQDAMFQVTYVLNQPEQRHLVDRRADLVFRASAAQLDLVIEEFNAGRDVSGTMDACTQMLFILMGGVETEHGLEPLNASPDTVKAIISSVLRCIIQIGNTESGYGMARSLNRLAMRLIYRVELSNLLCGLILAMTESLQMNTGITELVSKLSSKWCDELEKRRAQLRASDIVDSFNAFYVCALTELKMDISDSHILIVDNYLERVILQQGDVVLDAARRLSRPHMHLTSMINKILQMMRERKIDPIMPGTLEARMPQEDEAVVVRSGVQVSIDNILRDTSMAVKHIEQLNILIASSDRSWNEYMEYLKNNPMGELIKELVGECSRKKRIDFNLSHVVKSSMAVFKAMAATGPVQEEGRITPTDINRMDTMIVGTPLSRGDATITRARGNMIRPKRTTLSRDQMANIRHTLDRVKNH
B2: Zygote defective protein 9 (Caenorhabditis elegans), G5EEM5 (parent)
chain: B1 partner
partner: B1 chain

Variants of: B1
Details: with zyg9_caeel zyg-9, G5EEM5

| effect of a mutation on the interaction | Variant |
| --- | --- |
| decreasing interaction | MSLNTTFTKEDGTEVVIPFNGSQNGHPENEEPEVEEAAEPSSSVETLCGATRGDIIVMKHTTKALTELIERLLHSDEFEVRRCSNGQIISQGRCNGTTPGNGIGGGGASSEELEKALKDRDAARAEADKLHANYATLFASFNTVREAANDIRGEYEDARDKLKLAAAEVDEWQAKFLAVKDNANSELERASVEYDDLLRSHDENTKGLRLRVKRQEIELSSKNDEIKVFTNRVSELSQICDQLLNDVDVSDGMSVISTDA [L229F] |

Variants of: B2
Details: with tacc1_caeel tac-1, G5ECG0

| effect of a mutation on the interaction | Variant |
| --- | --- |
| decreasing interaction | E1317K |
| decreasing interaction | I862K |
